Measurements from patent US20210388087A1 (Chugai, published 2021).
Changes are numbered by the printed parent chain. In names and notes the source's numbering stands. Blank lines part the entries; values can stand above or below the binder they belong to.

Key:
[1] = molecular target: T1, Human CD137 ECD (human); test: SPR, vs parent H183/L072
T1 construct: also called 4-1BB

[2] = molecular target: T2, CD3 epsilon homodimer protein (UniProt P07766 23-126); test: SPR, CD3 epsilon homodimer on chip, one-arm antibody as analyte;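 further: surface plasmon resonance at 25 °C with CD3 epsilon homodimer amine-coupled to a CM4 sensor chip, antibody injected as analyte, HBS-EP+ as running buffer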
T2 construct: also called CD3 (CD3 epsilon)
T2 sequence (P07766 23-126): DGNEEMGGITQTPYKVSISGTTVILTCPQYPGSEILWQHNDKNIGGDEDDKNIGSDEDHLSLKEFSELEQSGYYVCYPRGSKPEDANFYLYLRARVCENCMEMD
Experimental: An appropriate amount of CD3 epsilon homodimer protein was immobilized onto Sensor chip CM4 (GE Healthcare Japan Corp.) by the amine coupling method. Then, the antibody having an appropriate concentration was injected thereto as an analyte and allowed to interact with the CD3 epsilon homodimer protein on the sensor chip. Then, the sensor chip was regenerated by the injection of 10 mmol/L glycine-HCl (pH 1.5). The assay was conducted at 25 degrees C., and HBS-EP+(GE Healthcare Japan Corp.) was used as a running buffer. […] Each parameter was calculated using Biacore T200 Evaluation Software (GE Healthcare Japan Corp.).

T1 sequence (chain, as listed by the source limits assumed): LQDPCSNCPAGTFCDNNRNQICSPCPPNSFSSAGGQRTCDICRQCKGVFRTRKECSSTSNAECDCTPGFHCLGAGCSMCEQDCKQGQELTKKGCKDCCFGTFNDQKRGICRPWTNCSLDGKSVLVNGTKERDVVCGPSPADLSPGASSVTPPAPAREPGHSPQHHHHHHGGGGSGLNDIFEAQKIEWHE

B1: dBBDu183H P61V / dBBDu072L (antibody, name in Kabat numbering, V domains shown)
VH: QVQLVESGGGLVQPGRSLRLSCAASGFTFSNAWMHWVRQAPGKGLEWVAQIKDKGNAYAAYYAVSVKGRFTISRDDSKNSIYLQMNSLKTEDTAVYYCHYVHYASASTVLPAFGVDAWGQGTTVTVSS
VL: DIVMTQSPLSLPVTPGEPASISCQASQELVHMNRNTYLHWYQQKPGQAPRLLIYKVSNRFPGVPDRFSGSGSGTDFTLKISRVEAEDVGVYYCAQGTSVPFTFGQGTKLEIK
notes: as m1, one VH change
- fold change of affinity [1]: 0.6 fold

B3: dBBDu183H A102G / dBBDu072L (antibody, name in Kabat numbering, V domains shown)
VH: B1 VH with V64P, A117G
VL: B1 VL
notes: as m1, one VH change
- fold change of affinity [1]: 1.6 fold

B5: dBBDu183H F100gH / dBBDu072L (antibody, name in Kabat numbering, V domains shown)
VH: B1 VH with V64P, F113H
VL: B1 VL
notes: as m1, one VH change
- fold change of affinity [1]: 0.7 fold

B7: dBBDu183H A100Q / dBBDu072L (antibody, name in Kabat numbering, V domains shown)
VH: B1 VH with V64P, A106Q
VL: B1 VL
notes: as m1, one VH change
- fold change of affinity [1]: 0.6 fold

B8: dBBDu183H A102S / dBBDu072L (antibody, name in Kabat numbering, V domains shown)
VH: B1 VH with V64P, A117S
VL: B1 VL
notes: as m1, one VH change
- fold change of affinity [1]: 0.9 fold

B9: dBBDu183H A100fG / dBBDu072L (antibody, name in Kabat numbering, V domains shown)
VH: B1 VH with V64P, A112G
VL: B1 VL
notes: as m1, one VH change
- fold change of affinity [1]: 0.6 fold

B10: dBBDu183H A98S / dBBDu072L (antibody, name in Kabat numbering, V domains shown)
VH: B1 VH with V64P, A104S
VL: B1 VL
notes: as m1, one VH change
- fold change of affinity [1]: 0.3 fold

B11: dBBDu183H D101E / dBBDu072L (antibody, name in Kabat numbering, V domains shown)
VH: B1 VH with V64P, D116E
VL: B1 VL
notes: as m1, one VH change
- fold change of affinity [1]: 2.2 fold

B12: dBBDu183H A100E / dBBDu072L (antibody, name in Kabat numbering, V domains shown)
VH: B1 VH with V64P, A106E
VL: B1 VL
notes: as m1, one VH change
- fold change of affinity [1]: 0.5 fold

B13: dBBDu183H D101Q / dBBDu072L (antibody, name in Kabat numbering, V domains shown)
VH: B1 VH with V64P, D116Q
VL: B1 VL
notes: as m1, one VH change
- fold change of affinity [1]: 1.7 fold

B15: dBBDu183H D101T / dBBDu072L (antibody, name in Kabat numbering, V domains shown)
VH: B1 VH with V64P, D116T
VL: B1 VL
notes: as m1, one VH change
- fold change of affinity [1]: 3.3 fold

B17: dBBDu183H D101N / dBBDu072L (antibody, name in Kabat numbering, V domains shown)
VH: B1 VH with V64P, D116N
VL: B1 VL
notes: as m1, one VH change
- fold change of affinity [1]: 0.7 fold

B18: dBBDu183H F100gE / dBBDu072L (antibody, name in Kabat numbering, V domains shown)
VH: B1 VH with V64P, F113E
VL: B1 VL
notes: as m1, one VH change
- fold change of affinity [1]: 1.9 fold

B19: dBBDu183H A98E / dBBDu072L (antibody, name in Kabat numbering, V domains shown)
VH: B1 VH with V64P, A104E
VL: B1 VL
notes: as m1, one VH change
- fold change of affinity [1]: 0.3 fold

B20: dBBDu183H A100fH / dBBDu072L (antibody, name in Kabat numbering, V domains shown)
VH: B1 VH with V64P, A112H
VL: B1 VL
notes: as m1, one VH change
- fold change of affinity [1]: 1 fold

B23: dBBDu183H A100fS / dBBDu072L (antibody, name in Kabat numbering, V domains shown)
VH: B1 VH with V64P, A112S
VL: B1 VL
notes: as m1, one VH change
- fold change of affinity [1]: 0.7 fold

B25: dBBDu183H A100R / dBBDu072L (antibody, name in Kabat numbering, V domains shown)
VH: B1 VH with V64P, A106R
VL: B1 VL
notes: as m1, one VH change
- fold change of affinity [1]: 0.5 fold

B26: dBBDu183H A100K / dBBDu072L (antibody, name in Kabat numbering, V domains shown)
VH: B1 VH with V64P, A106K
VL: B1 VL
notes: as m1, one VH change
- fold change of affinity [1]: 1.1 fold

B32: dBBDu183H D101S / dBBDu072L (antibody, name in Kabat numbering, V domains shown)
VH: B1 VH with V64P, D116S
VL: B1 VL
notes: as m1, one VH change
- fold change of affinity [1]: 3.3 fold

B34: dBBDu183H A100N / dBBDu072L (antibody, name in Kabat numbering, V domains shown)
VH: B1 VH with V64P, A106N
VL: B1 VL
notes: as m1, one VH change
- fold change of affinity [1]: 0.4 fold

B35: dBBDu183H A100G / dBBDu072L (antibody, name in Kabat numbering, V domains shown)
VH: B1 VH with V64P, A106G
VL: B1 VL
notes: as m1, one VH change
- fold change of affinity [1]: 0.7 fold

B36: CE115HA000 Y100aK (antibody, human IgG1, kappa, L234A L235A, N297A, name in Kabat numbering)
heavy: QVQLVESGGGVVQPGRSLRLSCAASGFTFSNAWMHWVRQAPGKGLEWVAQIKAKSNNYATYYAESVKGRFTISRDDSKNSLYLQMNSLKTEDTAVYYCRYVHYGAYKGVDAWGQGTTVTVSSASTKGPSVFPLAPSSKSTSGGTAALGCLVKDYFPEPVTVSWNSGALTSGVHTFPAVLQSSGLYSLSSVVTVPSSSLGTQTYICNVNHKPSNTKVDKKVEPKSCDKTHTCPPCPAPEAAGGPSVFLFPPKPKDTLMISRTPEVTCVVVDVSHEDPEVKFNWYVDGVEVHNAKTKPREEQYASTYRVVSVLTVLHQDWLNGKEYKCKVSNKALPAPIEKTISKAKGQPREPQVYTLPPSRCELTKNQVSLSCAVKGFYPSDIAVEWESNGQPENNYKTTPPVLDSDGSFFLVSKLTVDKSRWQQGNVFSCSVMHEALHNHYTQKSLSLSPDYKDDDDK
chain: EPKSSDKTHTCPPCPAPELLGGPSVFLFPPKPKDTLMISRTPEVTCVVVDVSHEDPEVKFNWYVDGVEVHNAKTKPREEQYNSTYRVVSVLTVLHQDWLNGKEYKCKVSNKALPAPIEKTISKAKGQPREPQVCTLPPSRDELTKNQVSLWCLVKGFYPSDIAVEWESNGQPENNYKTTPPVLDSDGSFFLYSKLTVDKSRWQQGNVFSCSVMHEALHNRYTQKSLSLSP
light: DIVMTQSPLSLPVTPGEPASISCRSSQSLVHSNRNTYLHWYQQKPGQAPRLLIYKVSNRFSGVPDRFSGSGSGTDFTLKISRVEAEDVGVYYCGQGTQVPYTFGQGTKLEIKRTVAAPSVFIFPPSDEQLKSGTASVVCLLNNFYPREAKVQWKVDNALQSGNSQESVTEQDSKDSTYSLSSTLTLSKADYEKHKVYACEVTHQGLSSPVTKSFNRGEC
notes: one-arm antibody
- KD ratio (KD of CE115HA000/KD of altered form) [2]: 0.79

B37: CE115HA000 Y100aQ (antibody, human IgG1, kappa, L234A L235A, N297A, name in Kabat numbering)
heavy: B36 heavy with K107Q
chain: B36 chain
light: B36 light
notes: one-arm antibody
- KD ratio (KD of CE115HA000/KD of altered form) [2]: 0.51

B38: CE115HA000 Y100aS (antibody, human IgG1, kappa, L234A L235A, N297A, name in Kabat numbering)
heavy: B36 heavy with K107S
chain: B36 chain
light: B36 light
notes: one-arm antibody
- KD ratio (KD of CE115HA000/KD of altered form) [2]: 0.59

B39: CE115HA000 Y100aL (antibody, human IgG1, kappa, L234A L235A, N297A, name in Kabat numbering)
heavy: B36 heavy with K107L
chain: B36 chain
light: B36 light
notes: one-arm antibody
- KD ratio (KD of CE115HA000/KD of altered form) [2]: 0.57

The remaining lines, values ahead:

- fold change of affinity [1]: 1.3 fold
B2: dBBDu183H G65D / dBBDu072L (antibody, name in Kabat numbering, V domains shown)
VH: B1 VH with V64P, G68D
VL: B1 VL
notes: as m1, one VH change

- fold change of affinity [1]: 1.2 fold
B4: dBBDu183H G65H / dBBDu072L (antibody, name in Kabat numbering, V domains shown)
VH: B1 VH with V64P, G68H
VL: B1 VL
notes: as m1, one VH change

- fold change of affinity [1]: 1 fold
B6: dBBDu183H F100gY / dBBDu072L (antibody, name in Kabat numbering, V domains shown)
VH: B1 VH with V64P, F113Y
VL: B1 VL
notes: as m1, one VH change

- fold change of affinity [1]: 0.5 fold
B14: dBBDu183H F100gV / dBBDu072L (antibody, name in Kabat numbering, V domains shown)
VH: B1 VH with V64P, F113V
VL: B1 VL
notes: as m1, one VH change

- fold change of affinity [1]: 0.4 fold
B16: dBBDu183H F100gS / dBBDu072L (antibody, name in Kabat numbering, V domains shown)
VH: B1 VH with V64P, F113S
VL: B1 VL
notes: as m1, one VH change

- fold change of affinity [1]: 1.1 fold
B21: dBBDu183H G65R / dBBDu072L (antibody, name in Kabat numbering, V domains shown)
VH: B1 VH with V64P, G68R
VL: B1 VL
notes: as m1, one VH change

- fold change of affinity [1]: 1.3 fold
B22: dBBDu183H G65E / dBBDu072L (antibody, name in Kabat numbering, V domains shown)
VH: B1 VH with V64P, G68E
VL: B1 VL
notes: as m1, one VH change

- fold change of affinity [1]: 0.6 fold
B24: dBBDu183H F100gW / dBBDu072L (antibody, name in Kabat numbering, V domains shown)
VH: B1 VH with V64P, F113W
VL: B1 VL
notes: as m1, one VH change

- fold change of affinity [1]: 0.7 fold
B27: dBBDu183H F100gT / dBBDu072L (antibody, name in Kabat numbering, V domains shown)
VH: B1 VH with V64P, F113T
VL: B1 VL
notes: as m1, one VH change

- fold change of affinity [1]: 1.3 fold
B28: dBBDu183H G65F / dBBDu072L (antibody, name in Kabat numbering, V domains shown)
VH: B1 VH with V64P, G68F
VL: B1 VL
notes: as m1, one VH change

- fold change of affinity [1]: 0.8 fold
B29: dBBDu183H F100gQ / dBBDu072L (antibody, name in Kabat numbering, V domains shown)
VH: B1 VH with V64P, F113Q
VL: B1 VL
notes: as m1, one VH change

- fold change of affinity [1]: 1.2 fold
B30: dBBDu183H G65Q / dBBDu072L (antibody, name in Kabat numbering, V domains shown)
VH: B1 VH with V64P, G68Q
VL: B1 VL
notes: as m1, one VH change

- fold change of affinity [1]: 1.1 fold
B31: dBBDu183H G65K / dBBDu072L (antibody, name in Kabat numbering, V domains shown)
VH: B1 VH with V64P, G68K
VL: B1 VL
notes: as m1, one VH change

- fold change of affinity [1]: 1.2 fold
B33: dBBDu183H G65N / dBBDu072L (antibody, name in Kabat numbering, V domains shown)
VH: B1 VH with V64P, G68N
VL: B1 VL
notes: as m1, one VH change
